Experimental data from patent US20220073631A1 (QYUNS THERAPEUTICS, published 2022).
Where a chain is given by its changes, count along the chain named. Each block holds one binder with its values, some of them ahead of it.

Legend:
[1] = target: T1, hIL-4Rα-Mu242 (human, UniProt P24394 26-232); test: SPR, Biacore T200, by the methods of Example 2
T1 construct: Printed positions fit the mature protein; also called V68R/V69F/S70Q; not shown: C-terminal his-tag
T1 chain: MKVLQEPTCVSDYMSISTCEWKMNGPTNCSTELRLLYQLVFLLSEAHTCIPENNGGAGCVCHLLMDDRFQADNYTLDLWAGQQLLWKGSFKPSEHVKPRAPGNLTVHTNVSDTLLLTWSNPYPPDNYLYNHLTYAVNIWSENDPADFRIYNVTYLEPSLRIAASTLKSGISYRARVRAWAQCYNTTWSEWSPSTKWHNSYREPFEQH
Description: (§1) The protein A was chemically coupled to a CM5 chip, and an appropriate amount of the antibody was immobilized by a capture method such that the Rmax was less than 50 RU and the flow rate for the capture was 10 μl/min. The antigen was subject to gradient dilution, and the flow rate in the instrument was switched to 30 μl/min. The antigen was flowed through the reference channel and the channel with the immobilized antibody sequentially in an ascending order of concentration, and the running buffer was flowed through as a negative control. After each binding and dissociation was complete, the chip was regenerated with glycine, pH 1.5. Fitting was performed with the build-in software in the instrument according to a 1:1 binding model. The binding rate constant kₐ, the dissociation rate constant kd, and the equilibrium dissociation constant KD values of the antibody were calculated. Dupilumab was obtained by purchasing a commercially available medicine.
(§2) To further narrow down the key amino acids that PD2-31 binds to, multiple mutants of hIL-4Rα were designed in Loop 2 (V40FLLSEA46) and Loop 3 (M65[…]73) (Table 2). The wild-type hIL-4Rα (hIL-4Rα-ECD) and hIL-4Rα mutants were prepared using standard techniques. Briefly, the expression plasmids containing the extracellular domain of wild-type hIL-4Rα and different mutated hIL-4Rα were constructed and transfected into HEK 293F cells. After expression, the extracellular domain of wild-type hIL-4Rα and hIL-4Rα mutants with C-terminus his-tag were purified by Nickel chromatography. Purified proteins of wild-type hIL-4Rα and hIL-4Rα mutants were analyzed for interaction with PD2-31 and Dupilumab. The interaction was studied by Biacore T200, according to the methods in Example 2.

[2] = target: T2, hIL-4Rα-Mu243 (human, UniProt P24394 26-232); test: SPR, Biacore T200, by the methods of Example 2
T2 construct: Printed positions fit the mature protein; also called V69F/S70Q/A71L; not shown: C-terminal his-tag
T2 chain: T1 chain with R68V, A71L
Description: as §1, §2

[3] = target: T3, hIL-4Rα-Mu239 (human, UniProt P24394 26-232); test: SPR, Biacore T200, by the methods of Example 2
T3 construct: Printed positions fit the mature protein; also called M65I/D66A/D67A; not shown: C-terminal his-tag
T3 chain: T1 chain with M65I, D66A, D67A, R68V, F69V, Q70S
Description: as §1, §2

[4] = target: T4, hIL-4Rα-Mu240 (human, UniProt P24394 26-232); test: SPR, Biacore T200, by the methods of Example 2
T4 construct: Printed positions fit the mature protein; also called D66A/D67A/V68R; not shown: C-terminal his-tag
T4 chain: T1 chain with D66A, D67A, F69V, Q70S
Description: as §1, §2

[5] = target: T5, hIL-4Rα-Mu453 (human, UniProt P24394 26-232); test: SPR, Biacore T200, by the methods of Example 2
T5 construct: Printed positions fit the mature protein; also called D66A/D67A; not shown: C-terminal his-tag
Description: as §1, §2

[6] = target: T6, hIL-4Rα-Mu241 (human, UniProt P24394 26-232); test: SPR, Biacore T200, by the methods of Example 2
T6 construct: Printed positions fit the mature protein; also called D67A/V68R/V69F; not shown: C-terminal his-tag
T6 chain: T1 chain with D67A, Q70S
Description: as §1, §2

[7] = target: T7, hIL-4Rα-Mu245 (human, UniProt P24394 26-232); test: SPR, Biacore T200, by the methods of Example 2
T7 construct: Printed positions fit the mature protein; also called A71L/D72R/N73A; not shown: C-terminal his-tag
T7 chain: T1 chain with R68V, F69V, Q70S, A71L, D72R, N73A

[8] = target: T8, hIL-4Rα-Mu244 (human, UniProt P24394 26-232); test: SPR, Biacore T200, by the methods of Example 2
T8 construct: Printed positions fit the mature protein; also called S70Q/A71L/D72R; not shown: C-terminal his-tag
T8 chain: T1 chain with R68V, F69V, A71L, D72R

[9] = target: IL-4Rα on human cells (HEK Blue IL-4/IL-13, A549, TF-1, HFL-1, PBMCs) (human, UniProt P24394 26-825); test: cell-based or functional assay
[10] = target: T9, human IL-4Rα (Shanghai Novoprotein Technology Co., Ltd) (human, UniProt P24394 26-232); test: SPR, Biacore T200, antibody captured on protein A, antigen as analyte, 25 C, 1:1 model
T9 construct: Bought protein; also called hIL-4Rα; human interleukin-4 receptor alpha
Description: as §1

Kd [1]: 27.3 nM
koff [1]: 0.00357 s⁻¹
kon [1]: 131000 M⁻¹ s⁻¹
Kd [2]: 0.0361 nM
koff [2]: 3.41e-05 s⁻¹
kon [2]: 945000 M⁻¹ s⁻¹
Kd [3]: 0.223 nM
koff [3]: 5.63e-05 s⁻¹
kon [3]: 253000 M⁻¹ s⁻¹
Kd [4]: 4.07 nM
koff [4]: 0.000421 s⁻¹
kon [4]: 103000 M⁻¹ s⁻¹
Kd [5]: 0.196 nM
koff [5]: 3.78e-05 s⁻¹
kon [5]: 193000 M⁻¹ s⁻¹
Kd [6]: 41.2 nM
koff [6]: 0.00444 s⁻¹
kon [6]: 108000 M⁻¹ s⁻¹
Kd [7]: > 10 nM
Kd [8]: > 10 nM
IC50, IL-4-induced CCL-11 release activity in HFL-1 cells (FIG. 7(A)) [9]: 0.0968 µg/mL
IC50, IL-4-induced CCL-11 release activity in HFL-1 cells (FIG. 7(B)) [9]: 0.0334 µg/mL
IC50, IL-4-induced CCL-17 release activity in A549 cells (FIG. 5(A)) [9]: 0.0449 µg/mL
IC50, IL-4-induced CCL-17 release activity in A549 cells (FIG. 5(B)) [9]: 0.0449 µg/mL
IC50, IL-4-induced CCL-17 release activity in PBMCs (FIG. 9(A)) [9]: 0.029 µg/mL
IC50, IL-4-induced CCL-17 release activity in PBMCs (FIG. 9(B)) [9]: 0.0436 µg/mL
IC50, IL-4-induced STAT6 phosphorylation activity in HEK Blue IL-4/IL-13 cells (FIG. 4(A)) [9]: 0.00439 µg/mL
IC50, IL-4-induced STAT6 phosphorylation activity in HEK Blue IL-4/IL-13 cells (FIG. 4(B)) [9]: 0.00454 µg/mL
IC50, IL-4-induced proliferation activity of TF-1 cells (FIG. 6(A)) [9]: 0.0219 µg/mL
IC50, IL-4-induced proliferation activity of TF-1 cells (FIG. 6(B)) [9]: 0.0188 µg/mL
IC50, IL-13-induced CCL-11 release activity in HFL-1 cells (FIG. 7(C)) [9]: 0.0475 µg/mL
IC50, IL-13-induced CCL-11 release activity in HFL-1 cells (FIG. 7(D)) [9]: 0.0869 µg/mL
IC50, IL-13-induced CCL-17 release activity in A549 cells (FIG. 5(C)) [9]: 0.0373 µg/mL
IC50, IL-13-induced CCL-17 release activity in A549 cells (FIG. 5(D)) [9]: 0.0465 µg/mL
IC50, IL-13-induced CCL-17 release activity in PBMCs (FIG. 9(C)) [9]: 0.0984 µg/mL
IC50, IL-13-induced CCL-17 release activity in PBMCs (FIG. 9(D)) [9]: 0.082 µg/mL
IC50, IL-13-induced STAT6 phosphorylation activity in HEK Blue IL-4/IL-13 cells (FIG. 4(C)) [9]: 0.0128 µg/mL
IC50, IL-13-induced STAT6 phosphorylation activity in HEK Blue IL-4/IL-13 cells (FIG. 4(D)) [9]: 0.0127 µg/mL
IC50, IL-13-induced proliferation activity of TF-1 cells (FIG. 6(C)) [9]: 0.0205 µg/mL
IC50, IL-13-induced proliferation activity of TF-1 cells (FIG. 6(D)) [9]: 0.0149 µg/mL
B1: Dupilumab (antibody, V domains shown)
VH: EVQLVESGGGLEQPGGSLRLSCAGSGFTFRDYAMTWVRQAPGKGLEWVSSISGSGGNTYYADSVKGRFTISRDNSKNTLYLQMNSLRAEDTAVYYCAKDRLSITIRPRYYGLDVWGQGTTVTVSS
VL: DIVMTQSPLSLPVTPGEPASISCRSSQSLLYSIGYNYLDWYLQKSGQSPQLLIYLGSNRASGVPDRFSGSGSGTDFTLKISRVEAEDVGFYYCMQALQTPYTFGQGTKLEIKR

Kd [10]: 0.207 nM
koff [10]: 9.9e-05 s⁻¹
kon [10]: 481000 M⁻¹ s⁻¹
IC50, IL-4-induced CCL-11 release activity in HFL-1 cells (FIG. 7(B)) [9]: 0.0643 µg/mL
IC50, IL-4-induced CCL-17 release activity in A549 cells (FIG. 5(B)) [9]: 0.0461 µg/mL
IC50, IL-4-induced CCL-17 release activity in PBMCs (FIG. 9(B)) [9]: 0.0678 µg/mL
IC50, IL-4-induced STAT6 phosphorylation activity in HEK Blue IL-4/IL-13 cells (FIG. 4(B)) [9]: 0.0065 µg/mL
IC50, IL-4-induced proliferation activity of TF-1 cells (FIG. 6(B)) [9]: 0.0193 µg/mL
IC50, IL-13-induced CCL-11 release activity in HFL-1 cells (FIG. 7(D)) [9]: 0.0895 µg/mL
IC50, IL-13-induced CCL-17 release activity in A549 cells (FIG. 5(D)) [9]: 0.0495 µg/mL
IC50, IL-13-induced CCL-17 release activity in PBMCs (FIG. 9(D)) [9]: 0.117 µg/mL
IC50, IL-13-induced STAT6 phosphorylation activity in HEK Blue IL-4/IL-13 cells (FIG. 4(D)) [9]: 0.0213 µg/mL
IC50, IL-13-induced proliferation activity of TF-1 cells (FIG. 6(D)) [9]: 0.0161 µg/mL
B2: QX005N (HZD82-12) (antibody, V domains shown)
VH: EVQLVESGGGLVQPGGSLRLSCAASGFSLNSNAVGWVRQAPGKGLEYIGFINFSGITYYANWAKGRFTISRDNSKNTLYLQMNSLRAEDTAVYYCARGSAGSFDLWGQGTLVTVSS
VL: DIQMTQSPSSLSASVGDRVTITCQASESVYKNNYLAWYQQKPGKAPKLLIYRASNLASGVPSRFSGSGSGTDFTLTISSLQPEDFATYYCQGGYSSGMYPFGQGTKVEIK
notes: Humanized from rabbit clone #82, expressed as a full antibody in ExpiCHO-S cells (heavy chain 48.3 kDa, light chain 23.6 kDa)
